Literature values as cited in US11590205B2, “Methods for producing stable therapeutic glucagon formulations in aprotic polar solvents” (Xeris Pharmaceuticals, Inc., priority 2015, dated 2023).

Conditions: aqueous

glucagon
solubility at neutral pH: essentially insoluble
